This passage reports Kd results from US20230032737A1 (published 2023).

The experiment has as its target purified human factor D (from human plasma) (human, UniProt P00746 26-253). The experiment is described as follows: Biacore SPR.

Chain of purified human factor D (from human plasma) (P00746 26-253): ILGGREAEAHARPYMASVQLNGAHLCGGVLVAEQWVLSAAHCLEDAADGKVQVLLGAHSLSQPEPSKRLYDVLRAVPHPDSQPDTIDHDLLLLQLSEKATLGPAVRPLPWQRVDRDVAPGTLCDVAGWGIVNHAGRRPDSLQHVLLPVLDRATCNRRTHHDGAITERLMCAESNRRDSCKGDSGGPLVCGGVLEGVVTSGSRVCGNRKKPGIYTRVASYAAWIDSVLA

B1: recombinant chimeric 11-8A1 (variable region of 11-8A1 + constant region of human IgG4) (antibody, V domains shown)
VH: EVQLQQSGADLVRPGASVKLSCTTSGFNIKDTYVHWVKQRPEQGLEWIGRIDPANGLTTFDPRFQAKATITADTSSNTAYLQLSSLTSEDTAVYYCTYAMEYWGQGTSVTVSS
VL: QIVLTQSPAIMSASPGERVTMTCSARSDVSYMYWYQQKPGSSPRLLIYDTSNLASGVPVRFSASGSGTSYSLTISRMEAEDAATYYCQQWSSYPPWTFGGGTKLEIK
The molecule B1 came in with a dissociation constant (Kd) of 0.153 nM.

B2: mAb 11-8A1 (hybridoma-derived murine anti-human factor D monoclonal antibody) (antibody, V domains shown)
VH: EVQLQQSGADLVRPGASVKLSCTTSGFNIKDTYVHWVKQRPEQGLEWIGRIDPANGLTTFDPRFQAKATITADTSSNTAYLQLSSLTSEDTAVYYCTYAMEYWGQGTSVTVSS
VL: QIVLTQSPAIMSASPGERVTMTCSARSDVSYMYWYQQKPGSSPRLLIYDTSNLASGVPVRFSASGSGTSYSLTISRMEAEDAATYYCQQWSSYPPWTFGGGTKLEIKR
Consider B2, for which the equilibrium dissociation constant (Kd) stood at 0.148 nM.
